Assay results taken from publication PMC10786891, “Massively parallel profiling of RNA-targeting CRISPR-Cas13d”.

T1: EsCas13d, nuclease-dead (Eubacterium siraeum, UniProt B0MS50, R295A;H300A;R849A;H854A)
T1 sequence: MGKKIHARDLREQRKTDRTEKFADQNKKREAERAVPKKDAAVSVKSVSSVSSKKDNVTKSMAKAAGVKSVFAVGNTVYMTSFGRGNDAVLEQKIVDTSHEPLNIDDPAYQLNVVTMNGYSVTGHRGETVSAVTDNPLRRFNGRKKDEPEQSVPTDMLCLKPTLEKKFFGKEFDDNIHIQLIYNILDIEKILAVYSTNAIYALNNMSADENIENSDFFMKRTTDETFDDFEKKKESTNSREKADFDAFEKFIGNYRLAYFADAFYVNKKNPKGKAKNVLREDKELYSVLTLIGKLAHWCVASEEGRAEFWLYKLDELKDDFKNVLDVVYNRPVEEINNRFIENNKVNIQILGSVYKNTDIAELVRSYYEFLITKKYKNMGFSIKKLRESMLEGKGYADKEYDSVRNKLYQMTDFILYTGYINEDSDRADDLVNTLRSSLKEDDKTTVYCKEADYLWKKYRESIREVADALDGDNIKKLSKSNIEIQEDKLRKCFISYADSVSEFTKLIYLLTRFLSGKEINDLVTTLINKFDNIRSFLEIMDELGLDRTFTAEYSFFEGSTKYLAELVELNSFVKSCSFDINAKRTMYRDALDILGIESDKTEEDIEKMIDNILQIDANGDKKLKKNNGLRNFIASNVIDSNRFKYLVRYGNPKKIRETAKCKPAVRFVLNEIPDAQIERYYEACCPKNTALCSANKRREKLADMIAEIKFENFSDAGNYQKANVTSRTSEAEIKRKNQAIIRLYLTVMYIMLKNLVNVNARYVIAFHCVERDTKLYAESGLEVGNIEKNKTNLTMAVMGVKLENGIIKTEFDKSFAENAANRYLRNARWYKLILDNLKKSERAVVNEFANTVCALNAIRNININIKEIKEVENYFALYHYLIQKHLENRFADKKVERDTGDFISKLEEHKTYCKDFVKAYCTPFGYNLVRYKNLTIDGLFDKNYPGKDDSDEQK

B1: target 1 insA 3' of 17,insG 3' of 10 (mixed)
RNA 1: CACCCGUGCAAAAAUGCAGGGGUCUAAAACUGAGCGGAUAACCUCUCUAUGG
RNA 2: GGGAAUGGAUCCACAUCUACGAAUUCGUACCAUAGAAGAGGUUGAUCCGCUCACCGAGAUCGGAAGAGCACACGU
B2: target 1 complement block 4-10 (mixed)
RNA 1: CACCCGUGCAAAAAUGCAGGGGUCUAAAACUGAGCGGAUAACCUCUCUAUGG
RNA 2: GGGAAUGGAUCCACAUCUACGAAUUCGUACCAUAGAGAGGUAUAGGCGUCACCGAGAUCGGAAGAGCACACGU
B3: target 1 insG 3' of 21,insU 3' of 18 (mixed)
RNA 1: CACCCGUGCAAAAAUGCAGGGGUCUAAAACUGAGCGGAUAACCUCUCUAUGG
RNA 2: GGGAAUGGAUCCACAUCUACGAAUUCGUACCGAUAUGAGAGGUUAUCCGCUCACCGAGAUCGGAAGAGCACACGU
B4: target 1 insC 3' of 11,insG 3' of 10 (mixed)
RNA 1: CACCCGUGCAAAAAUGCAGGGGUCUAAAACUGAGCGGAUAACCUCUCUAUGG
RNA 2: GGGAAUGGAUCCACAUCUACGAAUUCGUACCAUAGAGAGGUCUGAUCCGCUCACCGAGAUCGGAAGAGCACACGU
B5: target 1 insU 3' of 13,insA 3' of 7 (mixed)
RNA 1: CACCCGUGCAAAAAUGCAGGGGUCUAAAACUGAGCGGAUAACCUCUCUAUGG
RNA 2: GGGAAUGGAUCCACAUCUACGAAUUCGUACCAUAGAGAGUGUUAUCACGCUCACCGAGAUCGGAAGAGCACACGU
B6: target 1 G5U,A9U (mixed)
RNA 1: CACCCGUGCAAAAAUGCAGGGGUCUAAAACUGAGCGGAUAACCUCUCUAUGG
RNA 2: GGGAAUGGAUCCACAUCUACGAAUUCGUACCAUAGAGAGGUUUUCCUCUCACCGAGAUCGGAAGAGCACACGU
B7: target 1 insC 3' of 20,insG 3' of 2 (mixed)
RNA 1: CACCCGUGCAAAAAUGCAGGGGUCUAAAACUGAGCGGAUAACCUCUCUAUGG
RNA 2: GGGAAUGGAUCCACAUCUACGAAUUCGUACCACUAGAGAGGUUAUCCGCUCGACCGAGAUCGGAAGAGCACACGU
B8: target 1 C6U,C22U (mixed)
RNA 1: CACCCGUGCAAAAAUGCAGGGGUCUAAAACUGAGCGGAUAACCUCUCUAUGG
RNA 2: GGGAAUGGAUCCACAUCUACGAAUUCGUAUCAUAGAGAGGUUAUCUGCUCACCGAGAUCGGAAGAGCACACGU
B9: target 1 del3,del14 (mixed)
RNA 1: CACCCGUGCAAAAAUGCAGGGGUCUAAAACUGAGCGGAUAACCUCUCUAUGG
RNA 2: GGGAAUGGAUCCACAUCUACGAAUUCGUACCAUAGAGGGUUAUCCGCCACCGAGAUCGGAAGAGCACACGU
B10: target 1 insU 3' of 20,insG 3' of 6 (mixed)
RNA 1: CACCCGUGCAAAAAUGCAGGGGUCUAAAACUGAGCGGAUAACCUCUCUAUGG
RNA 2: GGGAAUGGAUCCACAUCUACGAAUUCGUACCAUUAGAGAGGUUAUCCGGCUCACCGAGAUCGGAAGAGCACACGU
B11: target 1 C2A,A18G (mixed)
RNA 1: CACCCGUGCAAAAAUGCAGGGGUCUAAAACUGAGCGGAUAACCUCUCUAUGG
RNA 2: GGGAAUGGAUCCACAUCUACGAAUUCGUACCAUGGAGAGGUUAUCCGCUAACCGAGAUCGGAAGAGCACACGU
B12: target 1 U3G,U10A (mixed)
RNA 1: CACCCGUGCAAAAAUGCAGGGGUCUAAAACUGAGCGGAUAACCUCUCUAUGG
RNA 2: GGGAAUGGAUCCACAUCUACGAAUUCGUACCAUAGAGAGGUAAUCCGCGCACCGAGAUCGGAAGAGCACACGU
B13: target 1 C6U,U11G (mixed)
RNA 1: CACCCGUGCAAAAAUGCAGGGGUCUAAAACUGAGCGGAUAACCUCUCUAUGG
RNA 2: GGGAAUGGAUCCACAUCUACGAAUUCGUACCAUAGAGAGGGUAUCUGCUCACCGAGAUCGGAAGAGCACACGU
B14: target 1 insU 3' of 21,insG 3' of 10 (mixed)
RNA 1: CACCCGUGCAAAAAUGCAGGGGUCUAAAACUGAGCGGAUAACCUCUCUAUGG
RNA 2: GGGAAUGGAUCCACAUCUACGAAUUCGUACCUAUAGAGAGGUUGAUCCGCUCACCGAGAUCGGAAGAGCACACGU
B15: target 1 insU 3' of 12,insU 3' of 9 (mixed)
RNA 1: CACCCGUGCAAAAAUGCAGGGGUCUAAAACUGAGCGGAUAACCUCUCUAUGG
RNA 2: GGGAAUGGAUCCACAUCUACGAAUUCGUACCAUAGAGAGGUUUAUUCCGCUCACCGAGAUCGGAAGAGCACACGU
B16: target 1 C2A,G5C (mixed)
RNA 1: CACCCGUGCAAAAAUGCAGGGGUCUAAAACUGAGCGGAUAACCUCUCUAUGG
RNA 2: GGGAAUGGAUCCACAUCUACGAAUUCGUACCAUAGAGAGGUUAUCCCCUAACCGAGAUCGGAAGAGCACACGU
B17: target 1 U3C,A9C (mixed)
RNA 1: CACCCGUGCAAAAAUGCAGGGGUCUAAAACUGAGCGGAUAACCUCUCUAUGG
RNA 2: GGGAAUGGAUCCACAUCUACGAAUUCGUACCAUAGAGAGGUUCUCCGCCCACCGAGAUCGGAAGAGCACACGU
B18: target 1 U3G,A16G (mixed)
RNA 1: CACCCGUGCAAAAAUGCAGGGGUCUAAAACUGAGCGGAUAACCUCUCUAUGG
RNA 2: GGGAAUGGAUCCACAUCUACGAAUUCGUACCAUAGGGAGGUUAUCCGCGCACCGAGAUCGGAAGAGCACACGU
B19: target 1 insG 3' of 11,insA 3' of 6 (mixed)
RNA 1: CACCCGUGCAAAAAUGCAGGGGUCUAAAACUGAGCGGAUAACCUCUCUAUGG
RNA 2: GGGAAUGGAUCCACAUCUACGAAUUCGUACCAUAGAGAGGUGUAUCCAGCUCACCGAGAUCGGAAGAGCACACGU
B20: target 1 U3G,A14C (mixed)
RNA 1: CACCCGUGCAAAAAUGCAGGGGUCUAAAACUGAGCGGAUAACCUCUCUAUGG
RNA 2: GGGAAUGGAUCCACAUCUACGAAUUCGUACCAUAGAGCGGUUAUCCGCGCACCGAGAUCGGAAGAGCACACGU
B21: target 1 insC 3' of 14,insG 3' of 11 (mixed)
RNA 1: CACCCGUGCAAAAAUGCAGGGGUCUAAAACUGAGCGGAUAACCUCUCUAUGG
RNA 2: GGGAAUGGAUCCACAUCUACGAAUUCGUACCAUAGAGACGGUGUAUCCGCUCACCGAGAUCGGAAGAGCACACGU
B22: target 1 C6A,C7U (mixed)
RNA 1: CACCCGUGCAAAAAUGCAGGGGUCUAAAACUGAGCGGAUAACCUCUCUAUGG
RNA 2: GGGAAUGGAUCCACAUCUACGAAUUCGUACCAUAGAGAGGUUAUUAGCUCACCGAGAUCGGAAGAGCACACGU
B23: target 1 U10C,G12U (mixed)
RNA 1: CACCCGUGCAAAAAUGCAGGGGUCUAAAACUGAGCGGAUAACCUCUCUAUGG
RNA 2: GGGAAUGGAUCCACAUCUACGAAUUCGUACCAUAGAGAGUUCAUCCGCUCACCGAGAUCGGAAGAGCACACGU
B24: target 1 insG 3' of 11 (mixed)
RNA 1: CACCCGUGCAAAAAUGCAGGGGUCUAAAACUGAGCGGAUAACCUCUCUAUGG
RNA 2: GGGAAUGGAUCCACAUCUACGAAUUCGUACCAUAGAGAGGUGUAUCCGCUCACCGAGAUCGGAAGAGCACACGU

Target: T1, EsCas13d, nuclease-dead
Assay: crRNA (strand 1, pre-loaded); Mg2+; 40 mM Tris-HCl pH 7.5, 150 mM NaCl, 6 mM MgCl2, 1 mM DTT, 0.1% Tween-20, 0.2 mg/ml BSA; 25 C; 10 min per concentration, then washed
Conditions: tags: His6-TwinStrep-SUMO cleaved; N-terminal SNAP kept (SNAP-Surface 488); label: 3' end held by stalled T7 RNA polymerase

Binder	Kd [nM]
B1	43 ± 9
B2	13.4 ± 0.4
B3	77 ± 22
B4	23.4 ± 2.5
B5	13.6 ± 0.6
B6	97 ± 20
B7	11.6 ± 0.5
B8	14.8 ± 1.9
B9	44 ± 4
B10	16.3 ± 0.9
B11	64 ± 18
B12	17.2 ± 1.3
B13	16.2 ± 0.9
B14	82 ± 23
B15	29 ± 5
B16	6.52 ± 0.32
B17	28.4 ± 3
B18	27.1 ± 1.5
B19	94 ± 29
B20	28.6 ± 1.8
B21	57 ± 13
B22	7.1 ± 0.5
B23	24 ± 4
B24	33.3 ± 3.1
